Assays:
Assay in all cases: cell_activity; T cells, mostly above 70%
Conditions in all cases: tags: SV40 NLS; FokI fusion
CD38 (2) left V2 TALEN = molecular target: T1, CD38 (2) left V2 TALEN (synthetic, UniProt Q56830 SEQ:15-719)
T1 chain: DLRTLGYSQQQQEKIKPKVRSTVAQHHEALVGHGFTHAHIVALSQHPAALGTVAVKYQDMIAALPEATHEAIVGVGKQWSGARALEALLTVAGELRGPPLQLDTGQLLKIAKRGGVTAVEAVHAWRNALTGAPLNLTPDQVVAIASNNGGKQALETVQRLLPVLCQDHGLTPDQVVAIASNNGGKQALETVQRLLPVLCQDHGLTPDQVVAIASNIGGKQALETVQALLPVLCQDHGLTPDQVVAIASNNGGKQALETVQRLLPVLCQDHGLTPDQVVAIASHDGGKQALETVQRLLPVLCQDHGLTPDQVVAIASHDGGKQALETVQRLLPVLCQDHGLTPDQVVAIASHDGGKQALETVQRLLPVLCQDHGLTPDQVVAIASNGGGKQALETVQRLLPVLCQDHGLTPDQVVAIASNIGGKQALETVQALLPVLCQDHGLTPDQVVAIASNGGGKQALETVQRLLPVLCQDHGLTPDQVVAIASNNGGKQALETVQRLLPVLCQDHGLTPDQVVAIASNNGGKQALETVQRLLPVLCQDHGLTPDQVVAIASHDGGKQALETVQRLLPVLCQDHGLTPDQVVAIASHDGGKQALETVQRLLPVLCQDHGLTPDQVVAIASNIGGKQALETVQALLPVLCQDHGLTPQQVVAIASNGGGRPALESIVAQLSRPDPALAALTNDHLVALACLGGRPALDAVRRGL

IgH (1) left V2 TALEN = molecular target: T2, IgH (1) left V2 TALEN (synthetic, UniProt Q56830 SEQ:15-719)
T2 chain: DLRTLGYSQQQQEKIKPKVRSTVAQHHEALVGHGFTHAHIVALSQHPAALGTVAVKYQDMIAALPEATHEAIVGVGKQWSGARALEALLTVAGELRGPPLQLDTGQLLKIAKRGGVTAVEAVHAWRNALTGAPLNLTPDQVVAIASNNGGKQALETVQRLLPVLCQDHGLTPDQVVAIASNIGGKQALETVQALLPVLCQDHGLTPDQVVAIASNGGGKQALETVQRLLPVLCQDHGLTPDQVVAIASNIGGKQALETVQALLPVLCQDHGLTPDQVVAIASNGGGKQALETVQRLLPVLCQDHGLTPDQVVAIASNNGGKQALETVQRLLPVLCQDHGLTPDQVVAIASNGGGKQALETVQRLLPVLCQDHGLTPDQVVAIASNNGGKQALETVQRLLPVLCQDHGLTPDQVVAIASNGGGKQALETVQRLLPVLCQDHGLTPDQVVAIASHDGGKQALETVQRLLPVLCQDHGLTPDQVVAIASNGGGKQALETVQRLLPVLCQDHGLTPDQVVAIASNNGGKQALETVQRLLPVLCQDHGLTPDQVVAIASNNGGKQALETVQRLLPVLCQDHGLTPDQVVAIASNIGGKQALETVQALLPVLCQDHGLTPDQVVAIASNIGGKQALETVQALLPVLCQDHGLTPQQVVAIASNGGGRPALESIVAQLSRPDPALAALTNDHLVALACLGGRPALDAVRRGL

CD38 (1) left V2 TALEN = molecular target: T3, CD38 (1) left V2 TALEN (synthetic, UniProt Q56830 SEQ:15-719)
T3 chain: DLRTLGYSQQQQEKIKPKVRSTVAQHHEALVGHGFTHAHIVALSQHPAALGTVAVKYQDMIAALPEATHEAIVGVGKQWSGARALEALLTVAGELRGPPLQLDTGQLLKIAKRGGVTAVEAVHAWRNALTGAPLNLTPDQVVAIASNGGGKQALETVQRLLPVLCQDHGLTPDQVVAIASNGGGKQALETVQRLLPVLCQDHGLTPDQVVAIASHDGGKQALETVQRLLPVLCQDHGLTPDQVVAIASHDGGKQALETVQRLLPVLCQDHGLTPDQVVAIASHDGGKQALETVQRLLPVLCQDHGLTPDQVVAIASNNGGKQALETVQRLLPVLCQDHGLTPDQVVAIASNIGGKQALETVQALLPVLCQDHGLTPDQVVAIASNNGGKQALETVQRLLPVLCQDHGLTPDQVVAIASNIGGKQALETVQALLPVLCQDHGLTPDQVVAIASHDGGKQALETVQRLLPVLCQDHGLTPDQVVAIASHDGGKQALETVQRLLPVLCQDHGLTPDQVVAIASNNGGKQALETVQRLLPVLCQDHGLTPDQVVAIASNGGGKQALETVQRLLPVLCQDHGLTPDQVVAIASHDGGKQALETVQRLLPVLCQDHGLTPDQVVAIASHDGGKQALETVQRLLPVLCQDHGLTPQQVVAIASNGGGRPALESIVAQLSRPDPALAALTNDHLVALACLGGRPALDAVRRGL

CISH (3) right V2 TALEN = molecular target: T4, CISH (3) right V2 TALEN (synthetic, UniProt Q56830 SEQ:15-719)
T4 chain: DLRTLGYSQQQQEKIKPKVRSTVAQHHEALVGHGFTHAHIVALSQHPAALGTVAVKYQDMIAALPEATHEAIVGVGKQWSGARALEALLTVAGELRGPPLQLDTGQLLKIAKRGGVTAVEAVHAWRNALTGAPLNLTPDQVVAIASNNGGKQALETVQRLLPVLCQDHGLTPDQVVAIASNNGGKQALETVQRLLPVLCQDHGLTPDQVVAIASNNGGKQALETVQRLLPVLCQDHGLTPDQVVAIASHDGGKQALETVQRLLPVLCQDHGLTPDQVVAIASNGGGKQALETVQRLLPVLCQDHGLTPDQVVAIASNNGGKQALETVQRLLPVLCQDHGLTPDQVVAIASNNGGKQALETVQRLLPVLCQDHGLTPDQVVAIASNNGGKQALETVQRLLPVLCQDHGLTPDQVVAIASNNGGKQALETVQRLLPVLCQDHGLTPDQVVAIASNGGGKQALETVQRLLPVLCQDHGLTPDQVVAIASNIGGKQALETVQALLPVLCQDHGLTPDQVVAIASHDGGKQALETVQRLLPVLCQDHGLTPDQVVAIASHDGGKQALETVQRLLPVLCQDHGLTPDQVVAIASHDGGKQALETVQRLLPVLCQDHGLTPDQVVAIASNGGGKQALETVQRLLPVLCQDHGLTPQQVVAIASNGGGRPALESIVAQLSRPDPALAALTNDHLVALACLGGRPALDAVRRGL

CD38 (1) right V2 TALEN = molecular target: T5, CD38 (1) right V2 TALEN (synthetic, UniProt Q56830 SEQ:15-719)
T5 chain: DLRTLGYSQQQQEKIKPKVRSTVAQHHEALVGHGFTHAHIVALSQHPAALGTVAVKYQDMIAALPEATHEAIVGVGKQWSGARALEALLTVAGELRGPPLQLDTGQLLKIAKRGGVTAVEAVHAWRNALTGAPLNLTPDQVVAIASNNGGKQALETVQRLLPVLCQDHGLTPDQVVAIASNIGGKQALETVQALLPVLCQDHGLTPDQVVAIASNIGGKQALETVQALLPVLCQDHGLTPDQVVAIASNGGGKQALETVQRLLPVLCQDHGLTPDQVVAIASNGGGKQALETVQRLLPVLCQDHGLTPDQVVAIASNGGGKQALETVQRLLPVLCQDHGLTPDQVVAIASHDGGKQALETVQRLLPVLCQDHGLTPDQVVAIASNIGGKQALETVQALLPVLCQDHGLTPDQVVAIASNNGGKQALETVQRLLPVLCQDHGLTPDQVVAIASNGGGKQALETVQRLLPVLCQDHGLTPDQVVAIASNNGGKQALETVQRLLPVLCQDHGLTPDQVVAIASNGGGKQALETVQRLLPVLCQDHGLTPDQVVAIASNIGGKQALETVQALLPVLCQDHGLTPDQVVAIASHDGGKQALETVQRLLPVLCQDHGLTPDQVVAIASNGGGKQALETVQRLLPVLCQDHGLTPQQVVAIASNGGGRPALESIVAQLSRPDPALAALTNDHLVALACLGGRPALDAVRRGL

IgH (1) right V2 TALEN = molecular target: T6, IgH (1) right V2 TALEN (synthetic, UniProt Q56830 SEQ:15-719)
T6 chain: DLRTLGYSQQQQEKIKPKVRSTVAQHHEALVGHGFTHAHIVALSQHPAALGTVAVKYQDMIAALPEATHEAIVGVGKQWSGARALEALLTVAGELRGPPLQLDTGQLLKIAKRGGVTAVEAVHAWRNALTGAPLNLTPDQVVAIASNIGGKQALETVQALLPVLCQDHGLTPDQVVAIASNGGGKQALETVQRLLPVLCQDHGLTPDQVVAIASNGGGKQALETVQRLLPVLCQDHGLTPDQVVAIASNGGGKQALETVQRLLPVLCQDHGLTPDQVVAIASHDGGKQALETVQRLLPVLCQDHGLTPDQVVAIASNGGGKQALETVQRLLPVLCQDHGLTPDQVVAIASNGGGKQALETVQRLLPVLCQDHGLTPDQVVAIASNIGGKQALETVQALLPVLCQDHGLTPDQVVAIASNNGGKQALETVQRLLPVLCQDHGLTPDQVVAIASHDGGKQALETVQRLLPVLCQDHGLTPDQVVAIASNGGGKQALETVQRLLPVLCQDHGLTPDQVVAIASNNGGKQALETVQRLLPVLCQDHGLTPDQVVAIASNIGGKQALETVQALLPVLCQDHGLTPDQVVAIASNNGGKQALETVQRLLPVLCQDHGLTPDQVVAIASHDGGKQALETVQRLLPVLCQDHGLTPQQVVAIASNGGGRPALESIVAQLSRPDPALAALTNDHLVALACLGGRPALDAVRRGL

CD38 (2) right V2 TALEN = molecular target: T7, CD38 (2) right V2 TALEN (synthetic, UniProt Q56830 SEQ:15-719)
T7 chain: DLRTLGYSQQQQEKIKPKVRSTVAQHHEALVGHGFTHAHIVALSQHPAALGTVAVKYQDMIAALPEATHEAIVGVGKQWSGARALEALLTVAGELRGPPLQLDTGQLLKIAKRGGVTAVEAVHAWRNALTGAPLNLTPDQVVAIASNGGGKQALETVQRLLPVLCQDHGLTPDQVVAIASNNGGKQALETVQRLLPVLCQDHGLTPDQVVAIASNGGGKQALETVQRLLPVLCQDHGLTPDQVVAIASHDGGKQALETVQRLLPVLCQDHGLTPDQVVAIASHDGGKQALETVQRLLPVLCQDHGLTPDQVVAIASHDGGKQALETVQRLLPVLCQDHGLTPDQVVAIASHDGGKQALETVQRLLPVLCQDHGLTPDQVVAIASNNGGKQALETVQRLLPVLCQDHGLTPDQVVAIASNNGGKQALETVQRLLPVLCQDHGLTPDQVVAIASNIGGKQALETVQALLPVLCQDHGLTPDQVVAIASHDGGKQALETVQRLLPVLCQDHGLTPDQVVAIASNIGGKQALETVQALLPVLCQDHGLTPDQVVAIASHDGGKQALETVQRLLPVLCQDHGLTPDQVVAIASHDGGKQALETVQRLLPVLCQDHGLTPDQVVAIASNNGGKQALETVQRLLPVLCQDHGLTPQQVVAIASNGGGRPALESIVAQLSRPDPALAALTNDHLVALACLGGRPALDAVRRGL

B1: CD38 (2) left half-site (dsDNA)
DNA 1: TGGAGCCCTATGGCCAA
DNA 2: TTGGCCATAGGGCTCCA
- activity (CD38 (2) left V2 TALEN): > 50 % indels

B2: IgH (1) left half-site (dsDNA)
DNA 1: TGATATGTGTCTGGAAT
DNA 2: ATTCCAGACACATATCA
- activity (IgH (1) left V2 TALEN): > 50 % indels

B3: CD38 (1) left half-site (dsDNA)
DNA 1: TTTCCCGAGACCGTCCT
DNA 2: AGGACGGTCTCGGGAAA
- activity (CD38 (1) left V2 TALEN): > 50 % indels

B4: CISH (3) right half-site (dsDNA)
DNA 1: GAGGGTACCCCAGCCCA
DNA 2: TGGGCTGGGGTACCCTC
- activity (CISH (3) right V2 TALEN): > 50 % indels

B5: CD38 (1) right half-site (dsDNA)
DNA 1: AAGTACACTGAAATTCA
DNA 2: TGAATTTCAGTGTACTT
- activity (CD38 (1) right V2 TALEN): > 50 % indels

B6: IgH (1) right half-site (dsDNA)
DNA 1: AGCTCAGCTAAGAAATA
DNA 2: TATTTCTTAGCTGAGCT
- activity (IgH (1) right V2 TALEN): > 50 % indels

B7: CD38 (2) right half-site (dsDNA)
DNA 1: CCGGTGTCCGGGGACAA
DNA 2: TTGTCCCCGGACACCGG
- activity (CD38 (2) right V2 TALEN): > 50 % indels

— patent US20250002945, “NEW TALE PROTEIN SCAFFOLDS WITH IMPROVED ON-TARGET/OFF-TARGET ACTIVITY RATIOS” (CELLECTIS SA, published 2025)
